Assay results as given in patent CN117836321A.

Target: VV B5单体蛋白 (Wyeth牛痘毒株的B5序列, C-末端AVI标签和HIS6标签) (牛痘病毒 Wyeth毒株)

B1: A048亲本抗B5 hIgG1 (antibody, V domains shown)
VH: QEQLEESGGGLVKPEGSLTLTCTASGFSFSSSYYMCWVRQAPGRGLEWIACIYTSSGSAYYANWAKGRFTISRTSSTTVTLQMTRLTAADTATYFCVRNAVGSSYYLYLWGPGTLVTVSS
VL: AQVLTQTPSPVSAAVGGTVTISCQASQSVAGNNYLSWYQQKPGQPPNLLIYSVSTLASGVPSRFKGSGSGTQFTLTISDLECDDAATYYCQGYYNDGIWAFGGGTEVVVK
Kd: 9.5 nM
